Laboratory results published in the supplement of paper PMC10567573.

B1: SETD8 (parent)
chain: FVVEYHGDLIEITDAKKREALYAQ

Variants of: B1
Experiment: protein stability index of a GFP-peptide fusion (GPS, HEK-293T) (PSI 1-6); higher = more stable
Conditions: c terminus: a fixed tail appended
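Further: lentivirally expressed fusions sorted by FACS into six bins by GFP to DsRed ratio, PSI derived from sequencing read proportions per bin multiplied by bin number.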

Variant	protein stability index
E11L	3.14
E11N	2.04
E11C	3.07
E11H	2.25
E11V	1.96
E11R	1.37
E11A	1.14
E11D	2.36
E11K	2.1
E11Y	2.56
E11S	2.25
E11T	2.43
E11Q	2.51
E11M	2.49
E11F	2.92
E11P	2.62
K16E	2.08
K16F	2.13
K16T	1.28
K16R	2.07
K16P	1.5
K16S	2.59
K16G	1.51
K16N	1.68

Variant	protein stability index
K16V	1.76
K16A	1.7
K16W	3.04
K16M	1.59
K16H	2.3
K16I	1.78
K16C	1
K16Q	2.48
K16D	2.05
I10L	2.17
I10H	1.64
I10R	1.82
I10A	2.08
I10F	2.1
I10E	2.21
I10Y	1.61
I10C	1.99
I10G	2.11
I10M	1.67
I10V	1.56
I10T	2.01
I10K	2.28
I10N	1.88
I10Q	2.5

Variant	protein stability index
I10W	1.21
I10P	2.25
I10S	2.21
I10D	2.58
K17M	2.46
K17R	1.33
K17S	1.81
K17Q	1.85
K17I	1.75
K17D	1.65
K17E	2.14
K17V	2.07
K17H	1.61
K17Y	1.34
K17L	1.73
K17A	1.59
K17T	1.6
K17W	1.84
K17C	2.17
K17N	2.06
K17F	2.17
K17G	1.26
R18L	1.87
R18T	1.57

Variant	protein stability index
R18C	2.32
R18D	2.27
R18V	1.82
R18F	1.75
R18P	1.56
R18G	1.24
R18Q	1.46
R18W	2.33
R18A	1.74
R18M	2.98
R18I	3.16
R18Y	2.2
R18N	2.31
R18H	2.39
R18S	2.04
H6D	3.13
H6E	2.88
H6T	1.76
H6F	2.12
H6C	3.73
H6L	2.02
H6I	2.19
H6M	2.04
H6P	2

Variant	protein stability index
H6G	2.15
H6S	2.31
H6Q	2.06
H6A	1.9
H6K	1.74
H6N	2.2
H6Y	2.16
H6W	1.35
H6R	2.18
E19N	1.27
E19K	1.47
E19V	1.51
E19L	3.57
E19S	1.81
E19C	2.87
E19Q	1.7
E19A	2.41
E19M	2.3
E19W	1.96
E19D	1.51
E19Y	1.81
E19T	2.42
E19F	2.97
E19G	1.75

Variant	protein stability index
E19P	1.84
E19R	2.84
E19H	1.64
D8H	1.56
D8G	2.01
D8L	2.85
D8P	1.83
D8N	1.7
D8V	3.4
D8Q	1.59
D8K	1.82
D8M	3.28
D8A	1.65
D8E	2.15
D8Y	1.84
D8C	2.01
D8F	2.77
D8S	2.33
D8T	1.45
A15H	1.87
A15L	1.93
A15D	1.82
A15W	2.37
A15N	1.43

Variant	protein stability index
A15Q	2.22
A15Y	1.13
A15I	2.04
A15P	2.73
A15K	2.33
A15C	1.67
A15V	2.3
A15S	1.88
A15M	2.69
A15R	3.06
A15G	2.23
A15E	2.08
A15F	2.25
A15T	1.51
E4T	1.74
E4K	1.45
E4Q	2.69
E4L	2.61
E4V	1.6
E4S	1.76
E4I	1.03
E4D	2.35
E4P	1.84
E4F	1.88

Variant	protein stability index
E4R	1.97
E4H	1.6
E4W	1.44
E4M	1.67
E4A	2.3
E4N	1.92
E4G	3.07
E4Y	1.72
E4C	1.82
A20D	2.48
A20F	1.39
A20L	1.39
A20H	2.64
A20E	2.67
A20G	1.75
A20M	1.38
A20C	2.08
A20K	1.85
A20I	2.09
D14I	2.69
D14K	2.58
D14S	1.88
D14M	1.95
D14Q	2.13

Variant	protein stability index
D14L	1.16
D14R	1.72
D14P	1.37
D14H	1.52
D14G	3.5
D14W	1.31
D14E	2.75
D14V	1.45
D14T	1.21
D14N	1.65
D14A	2.08
D14C	1.46
D14F	2.45
V3Q	2.32
V3K	2.36
V3C	2.24
V3D	2.15
V3P	2.03
V3Y	1.99
V3G	3.07
V3A	1.81
V3E	2.83
V3I	2.83
V3F	1.51

Variant	protein stability index
V3T	2.23
V3W	2.12
V3H	2.77
V3R	2.02
V3L	1.98
V3S	1.84
V3M	2.64
V3N	3.01
L9D	2.91
L9T	2.06
L9K	2.58
L9H	1.93
L9V	2.47
L9Q	2.73
L9M	1.46
L9W	1.47
L9N	2.86
L9Y	1.68
L9P	2.26
L9S	1.74
L9G	1.59
L9A	2.31
L9I	1.59
L9R	1.8

Variant	protein stability index
L9C	2.25
L9F	3.03
L9E	2.42
G7T	1.94
G7N	2.34
G7R	2.76
G7K	1.66
G7D	2.33
G7C	1.76
G7P	2.65
G7S	1.89
G7Q	1.83
G7M	1.08
G7F	2.87
G7E	2.33
G7I	3.15
G7A	1.56
G7V	1.11
G7H	2.08
Y5I	1.95
Y5T	2.32
Y5V	2.06
Y5P	3.03
Y5S	2.41

Variant	protein stability index
Y5Q	2.93
Y5A	1.99
Y5R	2.67
Y5K	2.68
Y5H	2.1
Y5W	1.43
Y5L	1.89
Y5D	3.2
Y5F	1.88
Y5C	2.05
Y5M	2.11
Y5E	3.86
Y5N	2.73
Y5G	2.4
I12Q	2.77
I12L	2.55
I12V	2.18
I12T	2.02
I12W	2.45
I12G	1.64
I12H	2.48
I12P	2.36
I12S	2.09
I12R	2.48

Variant	protein stability index
I12K	2.75
I12N	2.54
I12Y	1.56
I12M	1.72
I12A	1.98
I12E	2.74
I12C	2.1
I12D	2.22
I12F	2.21
V2R	3.02
V2W	1.32
V2F	2.19
V2E	3.73
V2C	3.25
V2K	3.6
V2S	2.97
V2P	4.09
V2N	3.64
V2I	1.83
V2Y	1.66
V2A	3.83
V2H	3.65
V2T	2.38
V2L	2.13

Variant	protein stability index
V2G	3.95
V2Q	3.12
V2M	2.49
V2D	4.2
T13F	3.25
T13M	1.5
T13V	3.05
T13H	2.02
T13Q	3.21
T13N	1.96
T13S	2.46
T13C	2.42
T13A	1.73
T13R	2.07
T13G	1.41
T13D	1.97
T13E	1.76
T13L	2.63
T13I	2.24
T13Y	1.78
T13K	2.79
T13P	2.65
